Two molecules from US20220380739A1 (Boehringer Ingelheim, published 2022) can be followed below.

Substitutions are numbered along the chain they refer to. Like-named read-outs stand apart in the source and are kept apart here.

Test [1] deals with 6H-GSG-VDVAD-BIWA4. The experiment in a line: cell-based or functional assay.
For test [2], the target named is 6H-GSG-VDVAD-BIWA4. Put plainly: cell-based or functional assay. This is another data set of the same source.

6H-GSG-VDVAD-BIWA4, sequence (scFv, as listed by the source): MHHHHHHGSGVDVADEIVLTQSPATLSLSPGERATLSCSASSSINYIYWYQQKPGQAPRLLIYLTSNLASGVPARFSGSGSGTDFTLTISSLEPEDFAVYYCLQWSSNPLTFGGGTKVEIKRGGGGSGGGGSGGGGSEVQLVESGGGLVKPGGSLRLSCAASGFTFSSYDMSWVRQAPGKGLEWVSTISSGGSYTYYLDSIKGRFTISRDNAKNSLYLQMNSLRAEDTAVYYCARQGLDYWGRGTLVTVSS

B1: T7AC_6H_mS9ProE (enzyme)
chain: MLEDPERNKERKEAELQAQTAEQHHHHHHGKNHAGSPGCEESAAGKEKLPKMRLPTRSDMICGYACLKGTAAMRNTKRGSWYIEALAQVFSERACDMHVADMLVKVNALIKDREGYAPGTEFHRCKVMSEYCSTLCRHLYLFPGHPPTGSGPVCLQVKPCTPEFYQTHFQLAYRLQSRPRGLALVLSNVHFTDEKELEFRSGGDVDHSTLVTLFKLLGYDVHVLCDQTAQEMQEKLQNFAQLPAHRGTDSCIVALLSHGVEGAIYGVDGKLLQLQEVFQLFDNANCPSLQNKPKMFFIQACRGEETERGVDQQD
For the molecule B1, the KM in the test with 6H-GSG-VDVAD-BIWA4 [1] and in the test with 6H-GSG-VDVAD-BIWA4 [2] was 0.00016 throughout.

B2: T7AC_6H_mS9ProD (enzyme)
chain: B1 chain with E307D
As to B2, the KM with 6H-GSG-VDVAD-BIWA4 [1] and with 6H-GSG-VDVAD-BIWA4 [2] was 0.00023 each time.
